Data: US6989362B1, “Methods of treating dopamine dysregulation using agents that regulate phosphorylation/dephosphorylation in dopamine signaling” (The Rockefeller University, priority 1999, dated 2006)

Molecular target: PKA (Homo sapiens, UniProt P17612)
Assay: Inhibition of PKA phosphorylation of substrates in vitro (kinetic analysis)
Assay type: biochemical
Experimental: Tissue was processed as described in the legend to FIGS. 1a-1e and immunoblotted for phospho-Thr75 (FIG. 2a), total DARPP-32 (FIG. 2b), or phospho-Thr34 (FIG. 2c). […] Purified DARPP-32 was phosphorylated to a stoichiometry of 0.93 mol/mol using native cdk1/cyclin B purified from sea star. Phospho-Thr75 DARPP-32 was precipitated from the reaction mixture with 5% TCA, resuspended in 1M Tris-HCl (pH 8.8), and dialyzed against 10 mM HEPES (pH 7.4). […] FIG. 2g depicts a Lineweaver-Burki kinetic analysis of PKA phosphorylation of ARPP-21 in the presence of 0 (◯), 5 (□), 10 (⋄), or 15 (Δ) μM Phospho-Thr75 DARPP-32.

- rates of phosphorylation by PKA of inhibitor-1, ARPP-21, synapsin I and histone H1 (15 μM phospho-Thr75 DARPP-32, purified catalytic subunit of PKA): dramatic reduction
- mechanism of PKA inhibition (ARPP-21 phosphorylation, 0-15 μM inhibitor): linear competitive single site mechanism
B1: phospho-Thr75 DARPP-32: the phosphorylated form of Thr75 DARPP-32; inhibitor of PKA (protein, listed as Homo sapiens)
chain: MDPKDRKKIQFSVPAPPSQLDPRQVEMIRRRRPTPAMLFRLSEHSSPEEEASPHQRASGEGHHLKSKRPNPCAYTPPSLKAVQRIAESHLQSISNLNENQASEEEDELGELRELGYPREEDEEEEEDDEEEEEEEDSQAEVLKVIRQSAGQKTTRGLGLEGPWERPPPLDESERDGGSEDQVEDPALSEPGEEPQRPSPSEPGR
modifications: phosphorylated Thr75
